Substrate: Cc1cn([C@H]2C[C@H](O)[C@@H](COP(=O)(O)OP(=O)(O)O[C@H]3O[C@@H](C)[C@H](O)[C@@H](O)[C@H]3O)O2)c(=O)[nH]c1=O
Test: anti-rhamnosylarginine Western blot, band intensity, Michaelis-Menten fit
Format: biochemical, Pseudomonas putida
Conditions: 2.5 μM unmodified EF-P of P. putida as acceptor, 0.1 μM EarP, 100 mM sodium phosphate pH 7.6, 30 °C, 20 s, commercial TDP-Rha

B1: EarPPpu (Pseudomonas putida KT2440) (protein)
chain: MKATWDIFCSVVDNYGDIGVTWRLARQLVAEHGLAVRLWVDDLNAFTPMCPGADATAAQQWQHGVDVRHWPAAWLPVAPADVVIGAFACQLPAAYVEAMRARPQPPLWLNLEYLSAEDWVEGCHGLPSPQPNGLRKVFFFPGFTDKTGGLLREGSLLARRDGFQQSAEARRAFLQGLGVDLVPGALLISLFAYENPQLGNWLDALATADQPCHLLVPQGRVVAGLSQWLGEGPLHVGDVRTRGALTVQVLPFVSQDDFDRLLWSCDFNAVRGEDSFVRAQWAGQPMLWHIYVQDENAHWEKLEAFLAHYRCGLSDDADAALLGLWRAWNMDFDMGQAWRAARQHWPELQQHARLWGARQAAQPDLATALVHFYRNSL
notes: C-terminal His6 tag kept; pBAD33-earPPpu, E. coli LMG194 host, Ni-NTA purified; GT-B fold, GT104 family
- Km: 5 µM
